# B1: αE-catenin α(CA) (M319G/R326E/R551E), as chain of the supra-complex (natural protein, mouse, UniProt P26231 1-906, looked up)
# chain: MTAVHAGNINFKWDPKSLEIRTLAVERLLEPLVTQVTTLVNTNSKGPSNKKRGRSKKAHVLAASVEQATENFLEKGDKIAKESQFLKEELVVAVEDVRKQGDLMKSAAGEFADDPCSSVKRGNMVRAARALLSAVTRLLILADMADVYKLLVQLKVVEDGILKLRNAGNEQDLGIQYKALKPEVDKLNIMAAKRQQELKDVGNRDQMAAARGILQKNVPILYTASQACLQHPDVAAYKANRDLIYKQLQQAVTGISNAAQATASDDAAQHQGGSGGELAYALNNFDKQIIVDPLSFSEERFRPSLEERLESIISGAALGADSSCTEDDRRERIVAECNAVRQALQDLLSEYMGNAGRKERSDALNSAIDKMTKKTRDLRRQLRKAVMDHVSDSFLETNVPLLVLIEAAKNGNEKEVKEYAQVFREHANKLIEVANLACSISNNEEGVKLVRMSASQLEALCPQVINAALALAAKPQSKLAQENMDLFKEQWEKQVRVLTDAVDDITSIDDFLAVSENHILEDVNKCVIALQEKDVDGLDRTAGAIRGRAAEVIHVVTSEMDNYEPGVYTEKVLEATKLLSNTVMPRFTEQVEAAVEALSSDPAQPMDENEFIDASRLVYDGIRDIRKAVLMIRTPEELDDSDFETEDFDVRSRTSVQTEDDQLIAGQSARAIMAQLPQEQKAKIAEQVASFQEEKSKLDAEVSKWDDSGNDIIVLAKQMCMIMMEMTDFTRGKGPLKNTSDVISAAKKIAEAGSRMDKLGRTIADHCPDSACKQDLLAYLQRIALYCHQLNICSKVKAEVQNLGGELVVSGVDSAMSLIQAAKNLMNAVVQTVKASYVASTKYQKSQGMASLNLPAVSWKMKAPEKKPLVKREKQDETQTKIKRASQKKHVNPVQALSEFKAMDSI
# notes: αE-catenin, mouse, untagged; residues 690–903 are modelled in the structure; used for the pairs that touch in the cryo-EM structure; also called αE-catenin ABD; ABD1; source: FreeStyle 293-F, co-expressed and purified within the tetramer Eβα(CA)-vinculin(T12-IV)
# Legend:
# [1] = biological target: F-actin (chicken skeletal muscle actin) (UniProt P68139); assay: F-actin co-sedimentation assay; conditions: +CC (black bar; with mutant afadin-CC); mean ± SD of three independent experiments; parent: est. 0.89; read off a plot
# [2] = biological target: the molecule itself; assay: cryo-EM structure; 2.5 μM tetramer Eβα(CA)-Vinculin(T12-IV) premixed with 5 μM afadin-CC, added to 0.6 μM F-actin on the grid; maps at 3.1 Å (straight, both strands decorated) and 4.1 Å (curved, one strand decorated)
# [3] = biological target: B1; assay: as above; conditions: both partners purified
response [1],Molecule,also measured
0.35,Eβα(CA)–vinculin(T12-IV)–afadin-CC pentamer (from UniProt Q02248;P26231;P18206-2;Q9QZQ1-3) afadin-CC:F1564A,
0.3,Eβα(CA)–vinculin(T12-IV)–afadin-CC pentamer (from UniProt Q02248;P26231;P18206-2;Q9QZQ1-3) afadin-CC:W1514A; afadin-CC:R1516A; afadin-CC:D1517A; afadin-CC:F1564A,
,B1,binding result [2]: binds
,"afadin-CC (afadin coiled-coil region, residues 1393–1602), purified (domain or fragment, mouse, UniProt Q9QZQ1-3 1393-1602, looked up, afadin coiled-coil region (afadin-CC), mouse; residues 1508–1578 are modelled in the structure; source: FreeStyle 293-F, transfected, purified (anti-GFP beads, TEV, MonoQ, SEC); not shown: GFP, N-terminal, cleaved) ANQAGPQSAQVAAAEWKKREEHQRWYEKEKARLEEERERKRREQERKLGQMRSQTLNPASFSPLATQAKPEKPSTLQRPQETVIRELQPQQQPRTIERKDLQYITISKEELSSGDSLSPDPWKRDAREKLEKQQQMHIVDMLSKEIHELQNKVDRTAEESDRLRKLMLEWQFQKRLQESKQKDEDDDEEEDDDVDTMLIMQRLEAERRAR",binding result [3]: binds

# Reference: publication doi:10.1101/2024.10.08.617332 (bioRxiv, 2024)
